Reference: paper PMC13181292 (2026)

Experiments:
[1] = target: CLEC-2 C-type lectin-like domain (Homo sapiens) (UniProt Q9P126); test: SPR; conditions: cited from earlier work
[2] = target: CLEC-2 C-type lectin-like domain (Mus musculus) (UniProt Q9JL99); test: SPR; conditions: cited from earlier work
[3] = target: the molecule itself; test: divalent nanobody Nb2-2 (100 nM)

CLEC-2 C-type lectin-like domain (Homo sapiens), sequence (Q9P126 109-217): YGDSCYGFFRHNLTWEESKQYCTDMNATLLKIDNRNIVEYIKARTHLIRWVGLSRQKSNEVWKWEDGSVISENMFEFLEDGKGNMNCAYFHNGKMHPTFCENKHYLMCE
CLEC-2 C-type lectin-like domain (Mus musculus), sequence (Q9JL99 109-217): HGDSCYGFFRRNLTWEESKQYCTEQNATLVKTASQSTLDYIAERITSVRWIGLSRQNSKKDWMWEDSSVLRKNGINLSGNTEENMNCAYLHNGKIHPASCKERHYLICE

## CLEC-2 C-type lectin-like domain (from UniProt Q9P126)
[1]
  Kd: 278 nM

## CLEC-2 C-type lectin-like domain (from UniProt Q9JL99)
[2]
  Kd: 499 nM

B1: SNAP-tag-GPVI and HaloTag-GPVI coexpressed on CHO-K1 cells (receptor)
chain: QSGPLPKPSLQALPSSLVPLEKPVTLRCQGPPGVDLYRLEKLSSSRYQDQAVLFIPAMKRSLAGRYRCSYQNGSLWSLPSDQLELVATGVFAKPSLSAQPGPAVSSGGDVTLQCQTRYGFDQFALYKEGDPAPYKNPERWYRASFPIITVTAAHSGTYRCYSFSSRDPYLWSAPSDPLELVVTGTSVTPSRLPTEPPSPVAEFSEATAELTVSFTNEVFTTETSRSITASPKESDSPAGPARQYYTKGNLVRICLGAVILIILAGFLAEDWHSRRKRLRHRGRAVQRPLPPLPPLPLTRKSNGGQDGGRQDVHSRGLCS
modifications: SNAP-tag labeled with SNAP-Surface Alexa Fluor-647; HaloTag labeled with Janelia Fluor-549
[3]
  koff: 0.95 s⁻¹
